The source of these data is patent US20070298997A1, “Compounds useful in treating diabetic microvascular complications and age-related macular degeneration” (priority 2003, published 2007).

Experiment [1] relates to vascular permeability in the retina, iris and choroid. In words: Vascular permeability by Evans blue leakage in OIR rats. Type of experiment: in vivo, Brown Norway rats. As for the experimental part: Next, the effect of kallistatin on vascular permeability was determined. At P14, two days after the rats were returned to normoxia, the OIR rats received an intravitreal injection of 3 μl of kallistatin of concentrations of 2.4, 4.8 and 9.6 mg/ml in the right eye (4 animals per dose group), and the same volume of PBS in the left. Two days after the kallistatin injection (P16), vascular permeability was measured by the Evans blue leakage method. […] Kallistatin injection decreased vascular permeability in a dose-dependent manner in the retina, iris and choroid of the hyperoxia-treated rats (FIG. 6).
Measurement of vascular permeability: Vascular permeability was quantified by measuring albumin leakage from blood vessels into the retina, iris and choroid using Evans blue following a documented protocol (Xu et al., 2001) with minor modifications. Evans blue dye (Sigma, St. Louis, Mo.) was dissolved in normal saline (30 mg/ml), sonicated for 5 min and filtered through a 0.45-μm filter (Millipore, Bedford, Mass.). The rats were anesthetized, and Evans blue (30 mg/kg) was injected over 10 seconds through the femoral vein using a glass capillary under microscopic inspection. Evans blue non-covalently binds to plasma albumin in the blood stream (Radius et al., 1980). Immediately after Evans blue infusion, the rats turned visibly blue, confirming their uptake and distribution of the dye. The rats were kept on a warm pad for 2 h to ensure the complete circulation of the dye. Then the chest cavity was opened, and the rats were perfused via the left ventricle with 1% paraformaldehyde in citrate buffer (pH=4.2) which was pre-warmed to 37° C. to prevent vasoconstriction. The perfusion lasted 2 min under the physiological pressure of 120 mmHg to clear the dye from the vessel. Immediately after perfusion, the eyes were enucleated and the retina, iris and choroid were carefully dissected under an operating microscope. Evans blue dye was extracted by incubating each sample in 150 μl formamide for 18 h at 70° C. The extract was centrifuged (TL; Beckman) at 70,000 rpm (Rotor type: TLA 100.3) for 20 min at 4° C. Absorbance was measured using 100 μl of the supernatant at 620 nm. The concentration of Evans blue in the extracts was calculated from a standard curve of Evans blue in formamide and normalized by the total protein concentration in each sample. Results were expressed in micrograms of Evans blue per milligrams of total protein content.

In a further experiment the test system is RCEC. In words: Quantitative analysis of apoptosis by Annexin V/PI flow cytometry. Type of experiment: cell-based, bovine. Particulars: 24 h, 40-640 nM. As for the experimental part: To determine whether kallistatin might induce cell death, RCEC were incubated with different concentrations of kallistatin or 10 μM chochicine for 24 h, and the apoptotic cells were quantified using the Annexin V-flow cytometry method. Phosphatidylserine externalization is a characteristic of cells undergoing apoptosis. The Annexin V-FITC kit allows for fluorescent detection of Annexin V bound to apoptotic cells and quantitative determination by flow cytometry. The Annexin V-FITC kit uses Annexin V conjugated with fluorescein isothiocyante (FITC) to label phosphatidylserine sites on the membrane surface. The kit includes propidium iodide (PI) to label the cellular DNA in necrotic cells where the cell membrane has been totally compromised. This combination allows the differentiation among early apoptotic cells (Annexin V positive, PI negative), necrotic cells (Annexin V positive, PI positive), and viable cells (Annexin V negative, PI negative) which can be located in the lower right, upper right, and lower left quadrants of the cytograms, respectively (FIG. 4a). Because only cells that are Annexin V-positive and PI-negative are truly apoptotic cells, the percentage of this cell population was quantified.
Quantitative analysis of apoptosis by flow cytometry: RCEC were plated at a density of 10^5 cells/well in 6-well plates. […] The cells were subsequently counted by flow cytometry.

In another experiment the test system is pericytes. Put plainly: Quantification of viable cells by MTT assay, pericytes. Type of experiment: cell-based, bovine. Particulars: 5-160 nM, 72 h, P>0.05. As for the experimental part:
FIG. 2 illustrates the specific inhibition of endothelial cell proliferation by recombinant kallistatin. RCEC were treated with recombinant kallistatin at concentrations of 5,10, 20, 40, 80 and 160 nM for 72 h. Viable cells were quantified by MTT assay. […] This effect appeared to be kallistatin concentration-dependent, with an apparent IC50 of 50 nM (FIG. 2) which is similar to that of K5, a known angiogenic inhibitor (Zhang et al., 2001).
Quantification of viable cells: Cells were plated in 12-well plates in triplicate and cultured in the growth medium until they reached 60-70% of confluency. The culture medium was replaced with a medium containing 1% fetal bovine serum (FBS). Recombinant kallistatin was added to the cover medium to various concentrations and incubated with the cells for 72 h. The viable cells were quantified by the MTT (3-[4,5-dimethylthiazol-2-yl]-2,5-dephenyl tetrazolium bromid, Roche, Mannheim, Germany) assay following a protocol recommended by the manufacturer. The effect of kallistatin on viable cell number was analyzed using Student's t test.
On the technique in general: Tetrazolium assays rely on reduction of a dye to a coloured formazan, in cell work by metabolically active cells.

The subject of another experiment is VEGF. Put plainly: Retinal VEGF levels in OIR rats by Western blot. In kind it is in vivo, Brown Norway rats. The conditions noted are these: intravitreal injection of 25 μg, P<0.01. On the procedure:
The effect of kallistatin on VEGF expression was also examined in vivo. After intravitreal injection of 25 μg kallistatin, VEGF levels were determined in the retina with OIR.
Induction of retinal neovascularization and intravitreal injection of kallistatin: Retinal neovascularization was induced as described by Smith et al. (Smith et al., 1994) with some modifications. Briefly, newborn pigmented Brown Norway rats at postnatal day 7 (P7) were exposed to hyperoxia (75% O2) for 5 days and then normoxia. Animals were anesthetized, and kallistatin was injected into the vitreous of the right eye through the pars plana using a glass capillary. The left eye received the same volume of PBS as the control. After injection, the animals were kept in normoxia for another 5 days for further analyses.
Western blot analysis: One hundred micrograms of total protein were used for Western blot analysis of VEGF using an ECL detection kit (Amersham International plc, Piscataway, N.J.) (Gao et al., 2001). The same membrane was stripped and re-blotted with an antibody specific to β-actin. VEGF levels were normalized by β-actin.
(In general: A western blot detects proteins with antibodies after separation by electrophoresis.)

The mark [2] stands for this setting: 3 μl of 4.8 mg/ml intravitreal, P<0.05.
[3] abbreviates: 3 μl of 9.6 mg/ml intravitreal at P14, measured P16, P<0.01.

B1: kallistatin: Recombinant His-tagged rat kallistatin (serpin, SEQ ID NO:1) expressed in E. coli and affinity-purified (protein, listed as Homo sapiens)
chain: DGILGRDTLPHEDQGKGRQLHSLTLASINTDFTLSLYKKLALRNPDKNVVFSPLSISAALAILSLGAKDSTMEEILEVLKFNLTEITEEEIHHQGFGHLLQRLSQPEDQAEINTGSALFIDKEQPILSEFQEKTRALYQAEAFVADFKQCNEAKKFINDYVSNQTQGKIAELFSELDERTSMVLVNYLLFKGKWKVPFNPNDTFESEFYLDEKRSVKVPMMKIKDLTTPYIRDEELSCSVLELKYTGNASALFILPDQGKMQQVESSLQPETLKKWKDSLRPRIISELRMPKFSISTDYNLEEVLPELGIRKIFSQQADLSRITGTKNLHVSQVVHKAVLDVDETGTEGAAATAVTAALKSLPQTIPPLNFNRPFMLVITDNNGQSVFFMGKVTNPM
modifications: His tag
B1: in experiment [1] (3 μl of 2.4 mg/ml intravitreal), the “vascular permeability, choroid” value is recorded as “did not show any significant effect”; the “vascular permeability, iris” value was “did not show any significant effect”; the “vascular permeability, retina” value is recorded as “did not show any significant effect”. In addition, the “vascular leakage, choroid” value in experiment [1] (3 μl of 4.8 mg/ml intravitreal) is listed as “not in the choroid”. For the same molecule, in experiment [1] (setting [2]), the “vascular leakage, iris” value is reported as “significantly decreased vascular leakage” and the “vascular leakage, retina” value is “significantly decreased vascular leakage”. Also, in experiment [1] (setting [3]), the “vascular permeability, iris” value is “significant decrease in permeability” and the “vascular permeability, retina” value is given as “significant decrease in permeability”. The “vascular permeability, choroid” value in experiment [1] (3 μl of 9.6 mg/ml intravitreal at P14, measured P16, P<0.05) is listed as “significant decrease in permeability”. Also, the “apoptosis (Annexin V-positive, PI-negative cells)” value in the experiment with RCEC is “increases apoptosis in RCEC in a dose-dependent manner”. For the same molecule, the “inhibition of pericytes (viable cells)” value in the experiment with pericytes was “did not result in any significant inhibition”. Also, in the experiment with VEGF, the “retinal VEGF levels, % of the control” value was ~35 % of the control.
